Target: His-tagged human recombinant full-length NEMO (human, UniProt Q9Y6K9 1-419)
Assay: SEC

Sequence of His-tagged human recombinant full-length NEMO (Q9Y6K9 whole entry): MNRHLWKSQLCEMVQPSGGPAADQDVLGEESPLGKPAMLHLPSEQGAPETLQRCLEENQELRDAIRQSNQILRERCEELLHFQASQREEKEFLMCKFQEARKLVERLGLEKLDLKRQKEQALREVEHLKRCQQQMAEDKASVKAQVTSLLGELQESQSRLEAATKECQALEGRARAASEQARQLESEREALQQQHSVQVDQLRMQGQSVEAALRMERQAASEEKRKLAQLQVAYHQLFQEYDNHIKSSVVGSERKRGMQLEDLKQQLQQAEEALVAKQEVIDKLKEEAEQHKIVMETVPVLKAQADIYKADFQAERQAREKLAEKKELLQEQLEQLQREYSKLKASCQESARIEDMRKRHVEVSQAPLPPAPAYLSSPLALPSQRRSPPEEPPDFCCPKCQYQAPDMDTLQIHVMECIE

B1: recombinant FL-human IκBα (natural protein, UniProt P25963 1-317, looked up)
chain: MFQAAERPQEWAMEGPRDGLKKERLLDDRHDSGLDSMKDEEYEQMVKELQEIRLEPQEVPRGSEPWKQQLTEDGDSFLHLAIIHEEKALTMEVIRQVKGDLAFLNFQNNLQQTPLHLAVITNQPEIAEALLGAGCDPELRDFRGNTPLHLACEQGCLASVGVLTQSCTTPHLHSILKATNYNGHTCLHLASIHGYLGIVELLVSLGADVNAQEPCNGRTALHLAVDLQNPDLVSLLLKCGADVNRVTYQGYSPYQLTWGRPSTRIQQQLGQLTLENLQMLPESEDEESYDTESEFTEFTEDELPYDDCVFGGQRLTL
B1: binds.

From article PMC3398199 (Molecular Cell, 2012)
